B1: Lysozyme C, P61626 (parent)
chain: MKALIVLGLVLLSVTVQGKVFERCELARTLKRLGMDGYRGISLANWMCLAKWESGYNTRATNYNAGDRSTDYGIFQINSRYWCNDGKTPGAVNACHLSCSALLQDNIADAVACAKRVVRDPQGIRAWVAWRNRCQNRDVRQYVQGCGV

Variants of: B1
Conditions: Homo sapiens, pH 2.7, Thermal, DSC, Gly-HCl 0.05 M, reversible: yes, structure 1LZ1, whole UniProt chain shown

Row | Variant | heat capacity change of unfolding (64.9 °C) | unfolding enthalpy (calorimetric) (64.9 °C) | Tm | change of melting temperature, mutant - wild type (higher = more stable) | heat capacity change of unfolding | ddG of mutation (higher = less stable) (64.9 °C)
1 | A110S | 2.01 kcal/mol/K | 104 kcal/mol | 67.5 °C | 2.6 °C | 2.01 kcal/mol/K | 
2 | A114S | 1.29 kcal/mol/K | 103 kcal/mol | 61.6 °C | -3.3 °C | 1.29 kcal/mol/K | 1 kcal/mol
3 | A50S | 1.65 kcal/mol/K | 111 kcal/mol | 63.9 °C | -1 °C | 1.65 kcal/mol/K | 0.33 kcal/mol
4 | L26T | 1.39 kcal/mol/K | 107 kcal/mol | 52.5 °C | -12.4 °C | 1.39 kcal/mol/K | 3.73 kcal/mol
5 | A27S | 1.27 kcal/mol/K | 106 kcal/mol | 64.8 °C | -0.1 °C | 1.27 kcal/mol/K | 
6 | V111T | 1.12 kcal/mol/K | 101 kcal/mol | 62.6 °C | -2.3 °C | 1.12 kcal/mol/K | 0.67 kcal/mol
7 | V117T | 1.41 kcal/mol/K | 104 kcal/mol | 63.3 °C | -1.6 °C | 1.41 kcal/mol/K | 
8 | V118T | 1.53 kcal/mol/K | 107 kcal/mol |  |  |  | 
